Results from article PMC2707214.

Target: TolB construct MV37 (TolB Δ1–22) (E. coli) (UniProt P0A855)
Test: SPR

Kd [µM]	Substance
4.1	TolAIII construct YZ48 (wild-type TolAIII) (domain or fragment)
23.6	TolAIII construct YZ74 (TolAIII Y352H,V407E) (domain or fragment)
